Measurements: US20210162028A1, “Methods for Inducing Intermittent Fasting and Modulating Autophagy” (The Hong Kong Polytechnic University, priority 2019, published 2021)
“Also recorded” adds a separate entry of the source.

Experiments:
[1] = Daily food intake / 7-day intermittent fasting cycle in mice; assay type: in vivo, mouse
Source text: One of the most noticeable effects of intermittent fasting is reduction of bodyweight. […] Specifically, C57BL/6J, which is the most commonly used mouse strain for polygenic obesity model, was used in the study. It is well-reported that C57BL/6J male mice feeding on a high-fat diet will have prominent weight gain, become obese and develop hyperinsulinemia, hyperglycemia, impaired glucose tolerance and insulin resistance [Gallou-Kabani et al., 2007, Obesity 15(8):1996-2005]. Obesity was induced in C57BL/6J male mice via feeding ad libitum a high-fat diet containing 60 kcal % fat (HFD; Research Diets, D12492) for 12-14 weeks starting from 5-week old. These mice are referred as diet-induced obese (DIO) mice. DIO mice were stratified according to bodyweight into 2 groups. […] Both groups of mice continued to feed ad libitum on the HFD throughout the treatment period. One group of age-matched C57BL/6J male mice feeding ad libitum on an ordinary rodent chow diet (CD; LabDiet, 50IF/6F) and injected with vehicle served as the lean control [CD (vehicle) group]. Food intake and bodyweight of mice were measured daily. […] DIO mice were injected with rhArg on Day 0, which was Day 7 of the previous cycle. Similarly, Day 7 of the cycle shown in FIG. 1B was Day 0 of the next cycle. […] Bodyweight gain is one of the biomarkers related to aging.
C57BL/6J male mice were fed a high-fat diet from 5-week old for 12 weeks. They were then stratified into 3 groups according to their bodyweight and individually caged: (i) one group of mice received i.p. injection of 600 U N-ABD094-rhArg (SEQ ID NO: 50) once a week [HFD (rhArg) group] and was fed ad libitum the HFD for 5 weeks; (ii) one group of mice received i.p. injection of saline once a week, and was fed a predetermined amount of HFD on each day to artificially create a 7-day intermittent fasting cycle that mimics the pattern of food intake of mice administered once a week with rhArg [HFD (artificial IF) group)]; (iii) one group of mice was injected with saline once a week and was fed ad libitum the HFD [HFD (vehicle) group].

[2] = Bodyweight of treated mice; assay type: in vivo, mouse
[3] = Inverted grid hanging test; assay type: in vivo, mouse
[4] = tested on: brown adipocyte; experiment: Transmission electron microscopy of interscapular brown adipose tissue; assay type: in vivo, mouse; settings: HFD-fed male mice, 600 U once a week, 4 weeks
Source text: FIG. 52 illustrates the interscapular brown adipose tissue (iBAT) examined by transmission electron microscopy at Day 3 and Day 7 of a 7-day intermittent fasting cycle after N-ABD094-rhArg injection. (A) The BAT of HFD-fed male mice administered with 600 U N-ABD094-rhArg (SEQ ID NO: 50) [HFD (rhArg) group] once a week for 4 weeks, in comparison to that of HFD-fed mice treated with vehicle [HFD (vehicle) group] […] (C) As examined under 5000× magnification, autophagosome engulfed the lipid droplet and breaking into tiny particles.
After prolonged feeding on a HFD, there was a further increase in the size (FIG. 53A) and weight of the interscapular BAT (FIG. 53B) in vehicle-treated DIO mice [HFD (vehicle) group] in comparison to the lean control mice [CD (vehicle) group], which was correlated with the presence of massive amount of enlarged white-like unilobular cells (FIG. 53A). As observed under transmission electron microscopy, brown adipocyte in mice fed with HFD [HFD (vehicle) group] had massive enlarged lipid droplets (FIG. 52A). […] Many autophagosomes were actively forming and engulfing the lipid droplets (FIG. 52B). The autolysosome was also found to be breaking down small lipid droplets, mixing with plenty of lysosomes in the structure (FIG. 52C).

[5] = tested on: primary culture of mouse hypothalamic neurons; experiment: Western blot of primary culture of mouse hypothalamic neurons; assay type: cell-based; settings: 2 U/mL
Source text: The arcuate nucleus in the hypothalamus has received extensive attention as an integrator and regulator of energy homeostasis and appetite. These neurons can rapidly sense metabolic fluctuations in the blood. Others have recently implicated autophagy in central appetite regulation and leptin sensitivity (Park et al., Nature Communications. 2020; 11: 1914). Knockdown of an essential autophagy gene autophagy-related 7 (Atg7), leads to accumulation of p62 in POMC neurons, resulting in an increase in bodyweight and appetite. Besides, it has been shown that amino acid deprivation/imbalance can trigger a reduction in food intake via eIF2α/ATF4 pathway [Maurin et al., Cell Rep. 2014 Feb. 6(3): 438-444]. In our study, mature hypothalamic neurons (after 14 day in vitro culture) were exposed to vehicle or 2 U/mL N-ABD094-rhArg (SEQ ID NO: 50) for 1 hr, 4 hrs, 8 hrs or 24 hrs. After treatment, proteins were harvested from whole cell lysate of neurons and subjected to western blot analysis for examining the short-term effect of arginine depletion on hypothalamic neurons. Autophagy markers (LC3B and p62) were analyzed. […] These findings supported that N-ABD094-rhArg (SEQ ID NO: 50) induced an autophagic flux in hypothalamic neurons.

[6] = 16-month old DIO C57BL/6J male mice on HFD, about 600 U once a week, 25 weeks
[7] = DIO C57BL/6J male mice on HFD, 600 U i.p. once a week, 5 weeks (artificial IF experiment)
[8] = DIO C57BL/6J male mice on HFD, 600 U i.p. once a week, 5 weeks (reduced daily food intake experiment)
[9] = DIO C57BL/6J male mice on HFD, about 600 U i.p. once a week, 34 weeks
[10] = DIO C57BL/6J male mice on HFD, about 600 U once a week, 49 weeks

B1: N-ABD094-rhArg: recombinant human arginase fused to albumin binding domain ABD094 (SEQ ID NO: 50); engineered long-acting arginine-depleting enzyme (protein)
chain: MHHHHHHDEAVDANSLAEAKEAANAELDSYGVSDFYKRLIDKAKTVEGVEALKDAILAALPSGSNNNNNNGSGGMSAKSRTIGIIGAPFSKGQPRGGVEEGPTVLRKAGLLEKLKEQECDVKDYGDLPFADIPNDSPFQIVKNPRSVGKASEQLAGKVAEVKKNGRISLVLGGDHSLAIGSISGHARVHPDLGVIWVDAHTDINTPLTTTSGNLHGQPVSFLLKELKGKIPDVPGFSWVTPCISAKDIVYIGLRDVDPGEHYILKTLGIKYFSMTEVDRLGIGKVMEETLSYLLGRKKRPIHLSFDVDGLDPSFTPATGTPVVGGLTYREGLYITEEIYKTGLLSGLDIMEVNPSLGKTPEEVTRTVNTAVAITLACFGLAREGNHKPIDYLNPPK
modifications: N-ABD094-rhArg, Synthesized in the Lab
notes: engineered long-acting arginine-depleting enzyme
In the case of B1, the “Pattern of food intake (intermittent fasting cycles)” value [1, 6] is reported as “induce repetitive 7-day intermittent fasting cycles”, the “Pattern of food intake (intermittent fasting cycles)” value ([1]; 17-month old C57BL/6J male mice on chow diet, about 600 U once a week, 21 weeks) is reported as “induce repetitive 7-day intermittent fasting cycles” and the “Pattern of food intake (intermittent fasting cycles)” value ([1]; 25-month old C57BL/6J male mice on chow diet, about 600 U once a week, 30 weeks) is reported as “prominent repetitive 7-day intermittent fasting cycles”. For the same molecule, the “Pattern of food intake (intermittent fasting cycle)” value ([1]; DIO C57BL/6J male mice on HFD, 200 U rhArg i.p. once a week and/or 0.33 mg RA daily) was “weak 7 days intermittent fasting cycle”, the “Total food intake per week, less than HFD (vehicle) group” value ([1]; DIO C57BL/6J male mice on HFD, 200 U rhArg i.p. once a week and/or 0.33 mg RA daily by gastric feeding, 10 weeks) was “slight, but insignificant decrease” and the “Pattern of food intake (intermittent fasting cycle)” value ([1]; DIO C57BL/6J male mice on HFD, 200 U rhArg i.p. once a week and/or 0.33 mg RA daily, listed as rhArg) was 7-day pattern of decreased food intake followed by an increase of food intake, but the magnitude was less than HFD (rhArg+RA) group. The “Pattern of food intake (intermittent fasting cycle)” value ([1]; DIO C57BL/6J male mice on HFD, 300 U rhArg i.p. once a week and/or 300 mg/kg metformin daily) was “weak intermittent fasting cycle”, the “Total food intake per week, less than HFD (vehicle) group” value ([1]; DIO C57BL/6J male mice on HFD, 300 U rhArg i.p. once a week and/or 300 mg/kg metformin daily by gastric feeding, 9 weeks) was “did not induce significant change in total food intake per week” and the “Pattern of food intake (intermittent fasting cycle)” value ([1]; DIO C57BL/6J male mice on HFD, 300 U rhArg i.p. once a week and/or 300 mg/kg metformin daily, listed as rhArg) was 7-day pattern of decreased food intake followed by an increase of food intake, but the magnitude was less than HFD (rhArg+Met) group. For the same molecule, the “Total food intake per week, less than HFD (vehicle) group” value [1, 7] was 26%, the “Reduction of total food intake per week” value [1, 8] was 30% and the “Pattern of food intake (intermittent fasting cycles)” value [1, 9] was “repetitive cycles of intermittent fasting; also recorded: repetitive 7-day intermittent fasting cycles”. The “Total food intake per week, less than HFD (vehicle) group” value [1, 9] was “about 30%”, the “Pattern of food intake (intermittent fasting cycles)” value [1, 10] was “repetitive 7-day intermittent fasting cycles” and the “Total food intake per week, less than HFD (vehicle) group” value [1, 10] was “about 29%”. For the same molecule, the “Pattern of food intake (intermittent fasting cycles)” value ([1]; DIO C57BL/6J male mice on HFD, about 600 U once a week, 49 weeks, listed as rhArg) was “repetitive cycles of intermittent fasting”, the “Pattern of food intake (intermittent fasting cycles)” value ([1]; DIO ICR female mice on HFD, about 1200 U i.p. once a week, 56 weeks) was “repeatedly occurring in ICR female mice throughout the 56 weeks of treatment period; also recorded: repetitive 7-day intermittent fasting cycles” and the Drop of bodyweight ([2]; 16-month old DIO C57BL/6J male mice on HFD, about 68 g prior to treatment, once a week, 25 weeks) was 50%. For the same molecule, the “Bodyweight maintained for the rest of the treatment period” value [2, 6] was “around 30 g”, the “Bodyweight reached and maintained under treatment” value (shortened to “Bodyweight reached and maintained”) ([2]; 17-month old C57BL/6J male mice on chow diet, about 600 U once a week, 21 weeks, from 40 g) was 30 g and the “Bodyweight reached and maintained” value ([2]; 25-month old C57BL/6J male mice on chow diet, about 600 U once a week, from 45 g within 3 weeks) was 30 g. For the same molecule, the “Change in bodyweight under single treatment” value ([2]; DIO C57BL/6J male mice on HFD, 300 U rhArg once a week alone or 300 mg/kg metformin daily alone) was “stable body weight without further increase in body mass”, the “Change in bodyweight under single treatment” value ([2]; DIO C57BL/6J male mice on HFD, 300 U rhArg once a week alone or 300 mg/kg metformin daily alone, listed as rhArg) was “could only prevent further gain in bodyweight, but did not result in weight loss” and the Change in bodyweight [2, 7] was “substantial weight loss”. For the same molecule, the “Decrease of bodyweight by the end of treatment” value [2, 8] was 44%, the Reduction of bodyweight ([2]; DIO C57BL/6J male mice on HFD, about 600 U i.p. once a week, within 6-7 weeks) was 40% and the “Bodyweight reached and maintained” value ([2]; DIO C57BL/6J male mice on HFD, about 600 U once a week, 49 weeks, from 50 g within 6-7 weeks) was “around 30 g”. For the same molecule, the “Bodyweight reached and maintained” value ([2]; DIO C57BL/6J male mice on HFD, about 600 U once a week, 49 weeks, from 50 g within 6-7 weeks, listed as rhArg) was 30 g, the “Change in bodyweight under single treatment” value ([2]; DIO C57BL/6J male mice on HFD, rhArg once a week alone or 0.33 mg RA daily alone) was “stable body weight without further increase” and the “Change in bodyweight under single treatment” value ([2]; DIO C57BL/6J male mice on HFD, rhArg once a week alone or 0.33 mg RA daily alone, listed as rhArg) was “could only prevent further gain in bodyweight, but did not result in weight loss”. For the same molecule, the Decrease of bodyweight ([2]; DIO ICR female mice on HFD, 1200 U i.p. once a week, within 9-10 weeks) was 30%, the “Bodyweight maintained for the rest of the treatment period” value ([2]; DIO ICR female mice on HFD, about 1200 U once a week, 56 weeks) was “around 35 g” and the “Inverted grid hanging test: endurance (latency to fall)” value ([3]; DIO C57BL/6J male mice on HFD, weekly for 42 weeks) was “endurance even higher than mice in CD (vehicle) group”. The “Inverted grid hanging test: performance” value ([3]; DIO ICR female mice on HFD, weekly, at 54 weeks) was “significantly better than mice in HFD (vehicle) group”, the “TEM of BAT, Day 3: autophagy/lipophagy” value [4] was “active lipophagy at Day 3” and the “TEM of BAT, Day 7: autophagosomes and autolysosomes” value [4] was “continuous active autophagy (lipophagy) was taking place; also recorded: autophagosome and autolysosome numbers had prominently reduced by Day 7”. The “TEM of BAT, Day 7: mitochondria” value ([4]; compared with Day 3) was “relatively large amount of mitochondria; also recorded: an increase in mitochondria number was observed”, the ATF4 level ([5]; 24 hrs) was “dramatic increase” and the “Level of LC3B-II” value ([5]; after 1 hr and 4 hrs) was “significantly increased”. The “Phosphorylation level of p70S6K1” value ([5]; after 1 hr, 4 hrs, 8 hrs or 24 hrs) was “significantly decreased”, the “Level of p62” value ([5]; after 4 hrs and 8 hrs) was “significantly decreased” and the “Proportion of glycosylated POMC” value ([5]; after 24 hrs) was “significantly increased”. For the same molecule, the “Phosphorylation level of eIF2α” value ([5]; at 8 hrs or 24 hrs) was “significant increase”.
